{
  "source": "paper PMC6618058",
  "key": {"[1]": {"target": "HLA-A*02:01 with the MART-1(27-35) nonapeptide …, not tagged"}, "[2]": {"target": "Biotinylated HLA-A*02:01 with the MART-1(26-35) decapeptide …"}},
  "data": [
    {"substance": "MEL5 TCR", "values": [
      {"measurement": "MIP‐1β secretion (ELISA) by CD8+ T cells transduced with the MEL5 TCR in response to titrated … presented by T2 cells; sensitivity against that of DMF4 TCR-transduced T cells", "setting": "[1]", "result": 100, "unit": "fold"},
      {"measurement": "dH", "setting": "[2]", "result": -14, "unit": "kcal/mol"}
    ]}
  ]
}
